In patent US20030028924:

What was measured:
[1] = molecular target: T1, Purified oat phytochrome A, Pfr spectral form, autophosphorylated, P06593
T1 chain: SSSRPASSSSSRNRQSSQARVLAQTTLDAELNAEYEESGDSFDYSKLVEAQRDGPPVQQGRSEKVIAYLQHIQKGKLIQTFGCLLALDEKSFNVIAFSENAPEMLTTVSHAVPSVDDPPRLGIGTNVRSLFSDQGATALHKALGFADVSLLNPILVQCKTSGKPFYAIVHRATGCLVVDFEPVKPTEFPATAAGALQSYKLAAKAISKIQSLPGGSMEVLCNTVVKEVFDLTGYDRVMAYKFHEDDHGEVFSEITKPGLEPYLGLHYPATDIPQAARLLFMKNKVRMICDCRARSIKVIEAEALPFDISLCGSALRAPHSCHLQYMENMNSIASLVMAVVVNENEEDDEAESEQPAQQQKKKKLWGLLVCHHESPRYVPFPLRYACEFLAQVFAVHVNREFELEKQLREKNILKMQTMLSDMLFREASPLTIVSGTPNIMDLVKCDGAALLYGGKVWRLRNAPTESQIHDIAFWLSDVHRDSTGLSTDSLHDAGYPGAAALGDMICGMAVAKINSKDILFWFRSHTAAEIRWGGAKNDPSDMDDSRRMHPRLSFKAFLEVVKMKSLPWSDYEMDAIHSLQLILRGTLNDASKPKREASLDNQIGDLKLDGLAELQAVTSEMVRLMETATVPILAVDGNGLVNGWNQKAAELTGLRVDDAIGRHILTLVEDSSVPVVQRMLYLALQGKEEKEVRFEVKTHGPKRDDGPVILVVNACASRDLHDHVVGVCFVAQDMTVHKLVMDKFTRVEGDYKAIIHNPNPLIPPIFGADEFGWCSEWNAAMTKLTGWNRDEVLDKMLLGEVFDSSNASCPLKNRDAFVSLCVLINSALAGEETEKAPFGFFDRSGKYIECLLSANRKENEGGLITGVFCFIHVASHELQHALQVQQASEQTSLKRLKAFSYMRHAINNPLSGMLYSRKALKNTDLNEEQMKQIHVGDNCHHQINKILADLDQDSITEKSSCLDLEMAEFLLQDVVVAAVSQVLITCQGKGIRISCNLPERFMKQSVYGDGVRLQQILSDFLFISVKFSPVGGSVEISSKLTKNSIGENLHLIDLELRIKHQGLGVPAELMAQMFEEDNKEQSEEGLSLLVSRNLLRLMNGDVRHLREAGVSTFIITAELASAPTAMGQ

[2] = molecular target: T2, Purified oat phytochrome A, Pr spectral form, autophosphorylated, P06593
T2 chain: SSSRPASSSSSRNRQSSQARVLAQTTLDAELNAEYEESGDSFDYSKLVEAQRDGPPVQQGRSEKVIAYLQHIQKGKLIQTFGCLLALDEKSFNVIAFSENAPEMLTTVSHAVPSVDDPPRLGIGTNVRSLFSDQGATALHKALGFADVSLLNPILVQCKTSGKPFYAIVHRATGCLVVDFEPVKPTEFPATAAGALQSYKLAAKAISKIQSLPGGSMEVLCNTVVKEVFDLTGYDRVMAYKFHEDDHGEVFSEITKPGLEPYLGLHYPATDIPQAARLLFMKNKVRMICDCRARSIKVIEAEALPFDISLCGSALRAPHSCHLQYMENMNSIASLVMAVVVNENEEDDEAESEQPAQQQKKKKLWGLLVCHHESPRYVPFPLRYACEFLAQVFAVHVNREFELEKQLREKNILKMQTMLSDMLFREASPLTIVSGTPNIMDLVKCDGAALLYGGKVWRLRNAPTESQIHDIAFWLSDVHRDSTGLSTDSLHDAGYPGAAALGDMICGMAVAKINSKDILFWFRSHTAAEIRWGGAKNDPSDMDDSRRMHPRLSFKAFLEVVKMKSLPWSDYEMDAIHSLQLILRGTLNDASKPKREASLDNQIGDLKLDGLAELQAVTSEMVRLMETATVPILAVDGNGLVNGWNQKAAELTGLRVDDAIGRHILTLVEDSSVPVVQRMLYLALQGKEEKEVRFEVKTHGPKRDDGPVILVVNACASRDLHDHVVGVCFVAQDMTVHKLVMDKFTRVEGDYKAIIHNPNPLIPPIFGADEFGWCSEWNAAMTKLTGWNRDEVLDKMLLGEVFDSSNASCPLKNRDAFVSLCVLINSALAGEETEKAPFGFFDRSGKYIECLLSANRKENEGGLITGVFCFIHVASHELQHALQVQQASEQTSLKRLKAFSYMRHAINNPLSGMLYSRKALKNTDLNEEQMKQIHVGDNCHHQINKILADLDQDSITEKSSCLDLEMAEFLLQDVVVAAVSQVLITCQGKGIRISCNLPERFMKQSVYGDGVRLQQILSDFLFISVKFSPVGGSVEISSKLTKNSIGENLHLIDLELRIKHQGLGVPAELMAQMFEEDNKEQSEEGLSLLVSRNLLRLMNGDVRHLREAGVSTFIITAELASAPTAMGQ

[3] = molecular target: T3, Purified oat phytochrome A, autophosphorylated in the presence of gamma-[32P]ATP, P06593
T3 chain: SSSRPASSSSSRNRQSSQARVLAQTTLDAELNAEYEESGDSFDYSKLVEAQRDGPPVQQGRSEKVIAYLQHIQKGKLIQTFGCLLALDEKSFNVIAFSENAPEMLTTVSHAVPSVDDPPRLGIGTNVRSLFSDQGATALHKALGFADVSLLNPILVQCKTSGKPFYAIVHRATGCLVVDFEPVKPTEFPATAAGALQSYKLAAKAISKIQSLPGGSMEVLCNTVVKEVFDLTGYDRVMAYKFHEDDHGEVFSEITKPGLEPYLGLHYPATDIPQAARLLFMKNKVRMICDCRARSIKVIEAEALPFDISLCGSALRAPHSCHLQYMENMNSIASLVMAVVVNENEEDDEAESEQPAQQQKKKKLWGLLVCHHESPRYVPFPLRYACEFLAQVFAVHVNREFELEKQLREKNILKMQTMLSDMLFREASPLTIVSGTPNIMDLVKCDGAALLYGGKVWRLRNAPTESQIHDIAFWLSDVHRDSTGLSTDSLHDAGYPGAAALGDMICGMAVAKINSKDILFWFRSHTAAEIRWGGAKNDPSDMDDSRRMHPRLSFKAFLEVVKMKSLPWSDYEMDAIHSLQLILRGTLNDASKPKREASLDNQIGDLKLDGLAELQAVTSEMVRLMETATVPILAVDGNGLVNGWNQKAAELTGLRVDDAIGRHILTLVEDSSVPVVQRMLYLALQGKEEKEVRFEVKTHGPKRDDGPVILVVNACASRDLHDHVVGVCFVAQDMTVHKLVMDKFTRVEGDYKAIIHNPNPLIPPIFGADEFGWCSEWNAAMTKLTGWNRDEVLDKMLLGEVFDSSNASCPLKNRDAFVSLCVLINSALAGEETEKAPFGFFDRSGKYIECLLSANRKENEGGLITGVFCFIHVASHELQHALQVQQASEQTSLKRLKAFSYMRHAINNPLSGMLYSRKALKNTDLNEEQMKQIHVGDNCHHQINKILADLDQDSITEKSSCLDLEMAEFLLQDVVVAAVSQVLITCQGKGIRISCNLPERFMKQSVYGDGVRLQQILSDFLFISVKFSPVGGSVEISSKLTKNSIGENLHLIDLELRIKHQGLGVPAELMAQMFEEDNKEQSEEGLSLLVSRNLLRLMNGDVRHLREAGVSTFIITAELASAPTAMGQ

B1: Recombinant PP2AC-JD protein expressed in E. coli BL21 from pGEX-4T-1 as a GST fusion, GST tag removed by thrombin (protein)
chain: DLDQWISKVKDGQHLLEDELQLLCEYVKEILIEESNVQPVNSPVTVCGDIHGQFHDLMKLFQTGGHVPETNYIFMGDFVDRGYNSLDVFTILLLLKARYPANITLLRGNHESRQLTQVYGFYDECQRKYGNANATRYCTDVFDYLTLSAIIDGTVLCVHGGLSPDIRTIDQIRVIERNCEIPHEGPFCDLMWSDPEDIETWAVSPRGAGWLFGSRVTSEFNHINNLDLVCRAHQLVQEGLKYMFQDKGLVTVWSAPNYCYRCGNVASILSFNENMEREVKFFTETEENNQMRGPRTGVPYFL
**Q.** With B1 as the protein, how does the “dephosphorylation of 32P-autophosphorylated phytochrome A (SDS-PAGE, autoradiography)” value (“dephosphorylation” below) [1] read?
**A.** more efficiently dephosphorylated by the PP2AC-JD than the Pr spectral form

**Q.** And the “dephosphorylation” value [2]?
**A.** The Pfr phytochrome A was more efficiently dephosphorylated by the PP2AC-JD than the Pr spectral form

**Q.** And the “dephosphorylation” value [3]?
**A.** efficiently dephosphorylated by the PP2AC-JD only in the presence of Fe^2+ or Zn^2+
